Data: patent publication US20030084477, “Genes enhancing disease resistance in plants” (published 2003)
Substitutions are numbered along the chain they refer to.

How the values were obtained:
[1] = biological target: T1, GST-Pti5 (Solanum lycopersicum, UniProt O04681 O04681:1-161); experiment: EMSA; 25 mM Hepes pH 7.5, 40 mM KCl, 0.1 mM EDTA, 10% glycerol, 1 mM DTT, poly(dA-dT), room temp; WT sequence printed with stray 'to' in the middle; conditions: tags: N-terminal GST (pGEX, E. coli PR745; cDNA nt 82-782); label: 32P end label
T1 sequence (O04681 whole entry, the tested form may be a part, one chain of several): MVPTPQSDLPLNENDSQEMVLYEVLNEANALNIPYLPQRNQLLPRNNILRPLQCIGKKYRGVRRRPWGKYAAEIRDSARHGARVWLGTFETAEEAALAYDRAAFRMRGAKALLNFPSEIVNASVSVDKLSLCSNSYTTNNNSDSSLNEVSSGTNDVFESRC
Procedure: (§1) The wild type gln2 PR-box 2x ([…] to […]) and mutated PR-box 2x ([…]) were end-labeled by 32P as described by Ausubel, F. M., Brent, R., Kingston, R. E., Moore, D. D., Seidman, J. G., Smith, J. A., and Struhl, K. (1994). Current Protocols in Molecular Biology. (New York: Greene Publish Associates/John Wiley and Sons). Four fmol of probe was mixed with each of the purified GST-fusion proteins in a buffer containing 2 μg poly(dA-dT) (dA-dT), 25 mM Hepes (PH7.5), 40 mM KCl, 0.1 mM EDTA, 10% glycerol, and 1 mM DTT, incubated at room temperature for 15 minutes, and electrophoresed on a 4% polyacrylamide gel in 0.25×TBE buffer. Ohme-Takagi, M. and Shinshi, H. (1995). Ethylene-inducible DNA-binding proteins that interact with an ethylene-responsive element. Plant Cell 7, 173-182. The gel was subsequently dried and exposed to x-ray film. […] In contrast to GST-Pti5 and GST-Pti6, neither GST-Ptil nor GST itself bound to the PR-box.

[2] = biological target: T1, GST-Pti5; experiment: EMSA; no binding detected; conditions: tags: N-terminal GST (pGEX, E. coli PR745; cDNA nt 82-782); label: 32P end label
Procedure: as §1

B1: wild type gln2 PR-box 2x (dsDNA)
DNA 1: CATAAGAGCCGCCACTAAAATAAGACCGATCAAATAAGAGCCGCCAT
DNA 2: ATGGCGGCTCTTATTTGATCGGTCTTATTTTAGTGGCGGCTCTTATG
Does B1 bind [1]?
Result: binds

B2: mutated PR-box 2x (dsDNA)
DNA 1: B1 DNA 1 with G8T, G11T, G40T, G43T
DNA 2: B1 DNA 2 with C5A, C8A, C37A, C40A
Does B2 bind [2]?
Result: no binding
